The text below walks through data of the DeepSol protein solubility set.

The nature of the series: soluble on expression in E. coli; label from the status in PepcDB or PDB records.
“MGSDKIHHHHHHMISMKEEIKKVIEETGLPIITDEKSGAAQWVDLRELRLSYIISVENIKPFYEGLKEGKLLGTKCKKCGRLFFPPQKDCPSCFDSDIEWVELKNEGTLETMTVVFVRPPSFSAYDPYPVAIAKLDDGPRILAWYKGDPQQAKPGMRVKIQVGKRKEGYLMYEIAPA”: the “soluble on expression in E. coli” value is listed as “not soluble”.

As for “MSLNLTFKKKSFFFKLSSKVDNSNTTYNYKSGWIIKLKNIEKGVGFGEVNPLRKHDLDACQIQLNQIPKYVNSKNISELIKNFHPCIQSAINSALAEIERKINFQENYYFNEIDQTAILLDPHNALKELIILKGNKLLNKKSLTIKWKVGIQDNFSEEKTLIEILNHLKSNIKLRIDANGSWERETANRWVDILKDIENIDWLEQPLSKDDIEGLKELNKKMPIALDESLLKYPYLINEWDGWQIRRPSQERNPMQLLKELKDKKGFRSLSTSFETGIGRRWLFHLSSLQLLGLTPKVPGLALKKNPNSFLFQNDAQKIWDQLEGHHHHHH”, the “soluble on expression in E. coli” value is listed as “not soluble”.

As to “MHHHHHHSSGVDLGTENLYFQSMLAVHFDKPGGPENLYVKEVAKPSPGEGEVLLKVAASALNRADLMQRQGQYDPPPGASNILGLEASGHVAELGPGCQGHWKIGDTAMALLPGGGQAQYVTVPEGLLMPIPEGLTLTQAAAIPEAWLTAFQLLHLVGNVQAGDYVLIHAGLSGVGTAAIQLTRMAGAIPLVTAGSQKKLQMAEKLGAAAGFNYKKEDFSEATLKFTKGAGVNLILDCIGGSYWEKNVNCLALDGRWVLYGLMGGGDINGPLFSKLLFKRGSLITSLLRSRDNKYKQMLVNAFTEQILPHFSTEGPQRLLPVLDRIYPVTEIQEAHKYMEANKNIGKIVLELPQ”, the “soluble on expression in E. coli” value was “soluble”.

For the sequence “MTENKGIMLAKSVQKHAGRAKEKILQNLGKVDRTADEIFDDHLNNFNRQQASANRLQKEFNNYIRCVRAAQAASKTLMDSVCEIYEPQWSGYDALQAQTGASESLWADFAHKLGDQVLIPLNTYTGQFPEMKKKVEKRNRKLIDYDGQRHSFQNLQANANKRKDDVKLTKGREQLEEARRTYEILNTELHDELPALYDSRILFLVTNLQTLFATEQVFHNETAKIYSELEAIVDKLATESQRGS”, the “soluble on expression in E. coli” value is on record as “soluble”.

Consider “MGHHHHHHSHMVETVSTKNTKNWHAPVVPAAWEAEAGESLEPWRWRLQWAGIASLHSSLGDRARLRLKKKKKKRKGHFPIQKSRKYVPFLKGICSSTPVGISRQVGQETEKRNKTQRQSIEKERGAQGTGALSLRGPAGALVSEFPQYLLIIIFTILARGV”, for which the “soluble on expression in E. coli” value is given as “not soluble”.

In the case of “SRMVLRGLLSEHPKKQMIPVIIYGAGRSGRQLLEAVKQMREYSAAAFVDDDPKLWHTVIYDLAVYQPDAIAFLIERYGVEKILLAIPGATQEQRRRIINKLEAYPCEVLTIPGMKDLMDGKISIGTLKKISVSDLLGRDSVAPDDRLMSADIEGKTVMVTGAGGSIGSELCRQIIRRRPEKLLLFELSEFALYAIEKELRETCIQKRLDTEILPFLGSVQNRTLLE”, the “soluble on expression in E. coli” value is “not soluble”.

In the case of “MKIPDLTNYEHLIGGLCGGVTSTVVCHPFDLLKIRFSANEGSSLRPQYSSYADAVRKIVRVEGVRGLYQGWTPSLIGASLSWGLYFQWYNSLRTKIYENFSTGSKLANNLISGCISGSAIMCITNPIWLTKTRLCLQYENQQSKKYAGMMDCLKKTVKQEGFFGLYRGFVTGVIGTTHGAVQIAAYSWIIDKRCQSQGLPKDSFLSQTDYVIASSTSKVLATTITFPYQVLRTRMQDHNTDSRGVWKTTLKTIHNEGIGGLWKGCLIANVRQLPAAVVTFLTYENVKRLVGMTKQI”, the “soluble on expression in E. coli” value is recorded as “not soluble”.

For the sequence “SNKDLVHIGVLQYVEHPSLSATRKGFIEELKEEGYVDGKNIKIDYQNAQGDQSNLQTISQSLIEDNDVMLAIATPAAQSLSSLTKGKPILFTAVTDPVSAKLVKSMDNVGGNVTGTSDMSPINKQVELLKKVFPNTKKVGIMYTTSERNSEVQVEEAKKYFKEAGIETVIKGISSTNDIQDTAKSLMSQTEVIFIPTDNTIVSAINTLVDLSKETKVPVVGSDAGSVEKGVLFTYGTNYEALGRQTGKLAGRVLRGEKVKDIDAEYPKTLNVVVNHDMAKKLGIDVSSISDEESKVSTKDDKPIAK”, the “soluble on expression in E. coli” value is on record as “not soluble”.

On to “MGGFGVGKTTMVGSVSEIRPLTTEETMTQAGIGVDDNYGSASKTATTVAMDFGRISITDELVLYLFGTPGQERFWFLWNGLFEGALGAVVLVDTRRLEVSFDVMGRLEERGVPFVVAVNTFPDAPRYPVAELRTALDLPEEIPILDCDVRRRASSRDVLMTLMRLLHSLAMKGALTLEHHHHHH”, for which the “soluble on expression in E. coli” value is reported as “not soluble”.

For “MGSDKIHHHHHHMMTYRDAWFELALLTNGRSFPRHTHDEFVISANLSGMETVWLDGETFVATNDMVTTYNPNQLQGSDNAFDRWQCASLYVHPQAFEHYFHQTFLFSQGWNPSAQLASELKQLVTSDLDDSARQERIILLLAGLMEGQHRMLPQSQVKEAERITRIKEGLLNDLSEVPTLDQLAQQESLSVAHLVRSFNQAVGLPPLAWLMQRRMCKARELLRQGTAISQVAGDVGFADQAHFTKAFNRYNAMTPGQFRRINF”, the “soluble on expression in E. coli” value is given as “not soluble”.

Turning to “MNRMKTKQIDRHLAKFAYSEEFVGDTKRSTAAYTSVREDASIGSTHKLPLEVEEFGKMSNTVILGCGLSGMLTALSFAQKGIKTTIFESKSVKSPEFFKDIRTTALTPHSKNFLFSIDIWEELEKFVAEMQDIYVVDNQASEILDLRNDADAVLGYVVKNSDFKKMLLSKITNNPLITLIDNNQYQEVISHNDYSIIKFDDNQIKCNLLIICDGANSKVRSHYFANEIEKPYQTALTFNIKHEKPHENCAMEHFLPFGPFALLPLKDQYASSVIWSTSSDQAALIVNLPVEEVRFLTQRNAGNSLGKITIDSEISSFPLKARIANRYFHNRIVLIADTAHTVHPLAGQGLNQGIKDIEILSMIVSNNGPLQEYQKLRQEDNFIMYKLTDELNNIFSNHSKNLRCLRQIGFKVINNFKPVKNLITSYAMGKR”, the “soluble on expression in E. coli” value is recorded as “not soluble”.

“MSHYGGNPRGNSSHQFGRKDFQQSDSKHIPKITGQPLPNEVQIPFDNMIYETRNPPKFEKQAKFISEYCINYDRKLQLGRMRAKKFHDKLPPNNLSLDLGKGFETFDPKEGDEKIIMLLEWINQMAPEGGRLKKVIHEADVVCWRGLITKICSTIYNKEEGWRIDAIKRKGVIFLCEEKTEQAKNRDLNQTDLDKRMSYWGHKFEQYVTLDDDAEQPDTSSPVTTKEEYAVVFRNDLQTDQRLNPEKRSIGIFYSGEVDCLDRHGNMLELKTQKGELGHGFYKYSKSFKWWLQSSLVNVDHIIVGLRTQEGHVKSLTSLRTREIPQRASWNFRAGFEFLSTIFTYILNCLEKDGDACVIEYRSEMGIHKGIQMRRVPVDEFDFVPNEFLEKFC”: the “soluble on expression in E. coli” value is reported as “not soluble”.

Turning to “MGSDKIHHHHHHMYLGIDVGGTHTDAVVLDAQKRIQAWAKVPTLHHDLLSSVTQALDSVLQSVAAQDIVRLNLSTTLSTNAIVESKTEDVGVLVSSGPGIDPENFRQGGFFFPLSGSIDHRGKVIAAMEQDELAAAVRRCCDSGIRVYAAVGKFSTRNPDHEETMAHEAMQCGDFVSMGHRLSGQLSFPRRVATAYYNSAVWRLYNSFADAVESSARAKGVTAPVHILKADGGTMPLAVSRRMPVESILSGPAASVMGIVALYDIREDAVILDIGGTTTDIALFASGSPVIENDGISVGSYPTLVRALRTLSIGVGGDSRLRIAAGAVRVGPDRSGPCVANGGTHVALMDAMNYLEVAAVGDVEASREAVRQLASLWDMYPEKLAREALDTAVNTICAAVDRLLDEVNAQPVYTIIELLDGVKLNPGRVFVMGGPAAAFAPLLRNVMNRRIDVPRDHAVANAVGAALTRTTAELELFADTEKGLVFVPTLGLRREAPLGYNLDDAVADAGRYLTESLAGMGIHIRPEDVDVLEAGSFNMVDMYGGKGRNIRVKCQVRPGISL”, the “soluble on expression in E. coli” value was “not soluble”.

Take “METLHTQEDIIKMLDSLLRPAEPFWNEFYANREKDVPFFENVPDENLVSYIQKKRVSKGKVLELGCGPGRNAIYLANEGFDVTAVDVSIEGINWAKERALAKGVEIEFICDSIFNLEVQNEFDFVYDSGCLHHIPPHRRVNYVDLIKNALKSGGYFGLTCFAAGDLDERNGSEITDWDVYRGWSLQGGLAYSEEKLREIFKGFEVIEIRKMEQIEQPNTMFGESFLWTALFKKNLEHHHHHH”: the “soluble on expression in E. coli” value is “not soluble”.

For the sequence “MGSDKIHHHHHHMKTAILDRFVFSDEVRDIIENAPEIIIPESRKEILDLAIAGRDLFEVGYEVPGKGFVVEATVTRCKNGLVVNYPEPYMRRRDPNALVVGDNLETDKPRFRERFGKEFEPIRQETFEWLKKQELILLPFMAGGYDYGYPAVLIAPKNAGFFVGGLADLQFFVPASEVPENFKPKLYMFLAPPFRHTHFDGKQVVVHYRHNSHYEIFSYNLYPGPSAKKGVYGFLLHVGEKEKWVTAHASAVKVITPYENELVIMHEGASGGGKSEILEEIHREPDGRIKLAENIVTGEKFYMELKQSCVLMPVADDMFMCHPKLQTGKKLVAKDAEAGWFIRVDHITEYGSAPDLERLTIHPPEPLIFLNIYAVPNSTALIWEHIEDEPGKPCPNPRVIIPKRFMKNAVSEPVKVDVRSFGVRTPPCTKEKPTYGIVGLMQILPPALAWLWRLVAPRGHANPSIVSTKGMTSEGVGSFWPFSSGKMVRLANILLEQIIDTPETRYILVPNQYIGAYKVGFMPEWIAREYLSRRGGVRFRPDQLVPSKCSLLGFSLKEMKIEGNTIPKELLQPHLQSEVGEEAYEKGAQELKDFFKRELKKFLTEDLNPVGREIIQCCLDDGSLDDYLKIIPMNF”, the “soluble on expression in E. coli” value was “not soluble”.

On to “MGHHHHHHSHMTDDKDVLRDVWFGRIPTCFTLYQDEITEREAEPYYLLLPRVSYLTLVTDKVKKHFQKVMRQEDISEIWFEYEGTPLKWHYPIGLLFDLLASSSALPWNITVHFKSFPEKDLLHCPSKDAIEAHFMSCMKEADALKHKSQVINEMQKKDHKQLWMGLQNDRFDQFWAINRKLMEYPAEENGFRYIPFRIYQTTTERPFIQKLFRPVAADGQLHTLGDLLKEVCPSAIDPEDGEKKNQVMIHGIEPMLETPLQWLSEHLSYPDNFLHISIIPQPTD”, for which the “soluble on expression in E. coli” value was “not soluble”.

Turning to “DCEKEGEVQWFALPVVLVSGCKKERAIEMKLPTEALFACLQNYPHLRALTQETQWLPYLVHSSDLSAVAPDEWWRAKQNTEAAAQHLRRFAPRPLLLPEGQSVHVVYALGFGSGKVQTALGQNLLQAGLPLMQVWQENLASEGVTLFANPLSPDSPVRALSDGSHTRQRMAMDVFAANAIRAVRMQSPR”, the “soluble on expression in E. coli” value is recorded as “not soluble”.

For “ARGHRHTCKVMVLKEEAAGSERALALDMREGQRVFHSLIVHFENDIPVQIEDRFVNAQVAPDYLKQDFTLQTPYAYLSQVAPLTEGEHVVEAILAEADECKLLQIDAGEPCLLIRRRTWSGRQPVTAARLIHPGSRHRLEGRFTK”, the “soluble on expression in E. coli” value is recorded as “soluble”.

Regarding “MAEATDVVLVGGGIMSATLGVLLKELEPSWEITLIERLEDVALESSNAWNNAGTGHSALCELNYAPLGANGIIDPARALNIAEQFHVSRQFWATLVAEGKLEDNSFINAVPHMSLVMNEDHCSYLQKRYDAFKTQKLFENMEFSTDRNKISDWAPLMMRGRDENQPVAANYSAEGTDVDFGRLTRQMVKYLQGKGVKTEFNRHVEDIKRESDGAWVLKTADTRNPDGQLTLRTRFLFLGAGGGALTLLQKSGIPEGKGYGGFPVSGLFFRNSNPETAEQHNAKVYGQASVGAPPMSVPHLDTRNVDGKRHLMFGPYAGFRSNFLKQGSLMDLPLSIHMDNLYPMLCAGWANMPLTKYLLGELRKTKEERFASLLEYYPEANPDDWELITAGQRVQIIKKDSEKGGVLQFGTEIVAHADGSLAALLGASPGASTAVPLMIRLMHQCFPERAPSWEDRLKELVPGYGIKLNENPERADEIIAYTAKVLDI”, the “soluble on expression in E. coli” value was “not soluble”.
